The target in one series is GST-Klf4-wt (Mus musculus, UniProt Q60793 1-483). Nature of the series: EMSA; unlabeled probe (1x or 100x) competes; LightShift Chemiluminescent EMSA Kit (Thermo Scientific), per manufacturer; buffer, salt, pH and temperature not stated. As to conditions: protein: recombinant; tags: GST (N-term, pGEX-6P-1); blunt.
The target of another series is GST-Klf4-E381A (Mus musculus, UniProt Q60793 1-483, E381A). Nature of the series: EMSA; affinity comparable to wt; LightShift Chemiluminescent EMSA Kit (Thermo Scientific), per manufacturer; buffer, salt, pH and temperature not stated. As to conditions: protein: recombinant; tags: GST (N-term, pGEX-6P-1); blunt.
GST-Klf4-E381A, sequence (Q60793 whole entry E381A): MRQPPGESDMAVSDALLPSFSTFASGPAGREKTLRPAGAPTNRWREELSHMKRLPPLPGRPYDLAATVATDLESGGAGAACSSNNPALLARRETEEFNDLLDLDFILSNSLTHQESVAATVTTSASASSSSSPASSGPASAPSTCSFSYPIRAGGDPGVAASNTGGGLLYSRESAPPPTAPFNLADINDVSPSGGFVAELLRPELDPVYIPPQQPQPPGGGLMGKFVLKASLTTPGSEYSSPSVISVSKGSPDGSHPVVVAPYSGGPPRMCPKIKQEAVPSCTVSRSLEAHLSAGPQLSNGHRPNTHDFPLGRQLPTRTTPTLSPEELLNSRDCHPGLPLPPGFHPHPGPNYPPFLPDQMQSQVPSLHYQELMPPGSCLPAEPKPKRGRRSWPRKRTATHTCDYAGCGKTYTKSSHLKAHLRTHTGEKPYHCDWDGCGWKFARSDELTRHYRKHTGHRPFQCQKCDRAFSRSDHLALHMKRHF

GST-Klf4-wt, sequence (Q60793 whole entry): as the sequence (Q60793 whole entry E381A) above, with A381E counted along it

B1: Nanog promoter probe (dsDNA)
DNA 1: GCCGCCTGGGTGCCTGGGAGAATAGGGGGTGGGTAGGGTAGGAGGCTTG
DNA 2: CAAGCCTCCTACCCTACCCACCCCCTATTCTCCCAGGCACCCAGGCGGC
Regarding B1, the binding result with GST-Klf4-wt and in the series with GST-Klf4-E381A was “binds” throughout.

The values above are taken from publication PMC5871780, “Klf4 glutamylation is required for cell reprogramming and early embryonic development in mice”.
